Laboratory results from patent US20140087995A1 (published 2014).
Read-outs that look alike come from different tables or passages of the source. Numbered stars: 1 amine (or outer) side, 2 acyl side, 3 side chain; on linkers, the order of the positions; unused ones are H or OH. Bridge positions count the residues as written; N and C are the ends. Side chains are listed from the residue outwards. Ends that are not written are not given here. * marks the point of attachment. C20 diacid = O=C(O)CCCCCCCCCCCCCCCCCCC(=O)*; γGlu = O=C(O)[C@H](CCC(=O)[*:2])N[*:1]; AEEA = NCCOCCOCC(=O)O

T1: human amylin receptor (amylin 3(a) receptor: human calcitonin receptor plus RAMP-3) (human, UniProt P30988 25-474; O60896 24-148)
T1 sequence (looked up) 1: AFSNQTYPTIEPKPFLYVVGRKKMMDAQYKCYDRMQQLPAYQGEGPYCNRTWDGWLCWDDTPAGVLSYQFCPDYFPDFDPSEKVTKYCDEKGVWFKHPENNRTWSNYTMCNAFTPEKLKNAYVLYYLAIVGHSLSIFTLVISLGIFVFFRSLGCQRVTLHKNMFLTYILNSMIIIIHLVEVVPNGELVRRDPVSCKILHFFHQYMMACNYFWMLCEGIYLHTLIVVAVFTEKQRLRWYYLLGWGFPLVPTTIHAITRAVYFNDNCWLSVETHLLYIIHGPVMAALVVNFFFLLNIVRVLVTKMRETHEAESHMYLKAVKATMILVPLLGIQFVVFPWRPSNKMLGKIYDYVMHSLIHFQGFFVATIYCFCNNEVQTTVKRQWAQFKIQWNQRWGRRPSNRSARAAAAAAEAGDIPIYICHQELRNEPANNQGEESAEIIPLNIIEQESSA
T1 sequence (looked up) 2: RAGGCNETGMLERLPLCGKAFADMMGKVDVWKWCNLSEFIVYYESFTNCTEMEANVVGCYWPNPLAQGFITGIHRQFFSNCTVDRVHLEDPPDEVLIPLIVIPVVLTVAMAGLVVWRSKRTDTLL

T2: human calcitonin receptor (human, UniProt P30988 25-474)
T2 sequence (looked up): T1 sequence (looked up) 1

B1: N^ε1-[(4S)-4-carboxy-4-(19-carboxynonadecanoylamino)butanoyl]-[Glu14,Arg17,Pro21,Pro27,His35]-h-amylin (peptide)
peptide: K([γGlu-C20 diacid])CNTATCATQRLAEFLRHSSPNFGAIPSSTNVGSHTY-NH2
modifications: disulfide 2-7; N-terminus assumed
SMILES: CC[C@H](C)[C@H](NC(=O)[C@H](C)NC(=O)CNC(=O)[C@H](Cc1ccccc1)NC(=O)[C@H](CC(N)=O)NC(=O)[C@@H]1CCCN1C(=O)[C@H](CO)NC(=O)[C@H](CO)NC(=O)[C@H](Cc1c[nH]cn1)NC(=O)[C@H](CCCNC(=N)N)NC(=O)[C@H](CC(C)C)NC(=O)[C@H](Cc1ccccc1)NC(=O)[C@H](CCC(=O)O)NC(=O)[C@H](C)NC(=O)[C@H](CC(C)C)NC(=O)[C@H](CCCNC(=N)N)NC(=O)[C@H](CCC(N)=O)NC(=O)[C@@H](NC(=O)[C@H](C)NC(=O)[C@@H]1CSSC[C@H](NC(=O)[C@@H](N)CCCCNC(=O)CC[C@H](NC(=O)CCCCCCCCCCCCCCCCCCC(=O)O)C(=O)O)C(=O)N[C@@H](CC(N)=O)C(=O)N[C@@H]([C@@H](C)O)C(=O)N[C@@H](C)C(=O)N[C@@H]([C@@H](C)O)C(=O)N1)[C@@H](C)O)C(=O)N1CCC[C@H]1C(=O)N[C@@H](CO)C(=O)N[C@@H](CO)C(=O)N[C@H](C(=O)N[C@@H](CC(N)=O)C(=O)N[C@H](C(=O)NCC(=O)N[C@@H](CO)C(=O)N[C@@H](Cc1c[nH]cn1)C(=O)N[C@H](C(=O)N[C@@H](Cc1ccc(O)cc1)C(N)=O)[C@@H](C)O)C(C)C)[C@@H](C)O
B2: N^ε-[2-[2-[2-[[(4S)-4-carboxy-4-(19-carboxynonadecanoylamino)butanoyl]amino]ethoxy]ethoxy]acetyl]Lys[Arg1,Arg17,Pro21,Pro27,His35]-h-amylin (peptide)
peptide: K([AEEA-γGlu-C20 diacid])RCNTATCATQRLANFLRHSSPNFGAIPSSTNVGSHTY-NH2
modifications: disulfide 3-8; N-terminus assumed
SMILES: CC[C@H](C)[C@H](NC(=O)[C@H](C)NC(=O)CNC(=O)[C@H](Cc1ccccc1)NC(=O)[C@H](CC(N)=O)NC(=O)[C@@H]1CCCN1C(=O)[C@H](CO)NC(=O)[C@H](CO)NC(=O)[C@H](Cc1c[nH]cn1)NC(=O)[C@H](CCCNC(=N)N)NC(=O)[C@H](CC(C)C)NC(=O)[C@H](Cc1ccccc1)NC(=O)[C@H](CC(N)=O)NC(=O)[C@H](C)NC(=O)[C@H](CC(C)C)NC(=O)[C@H](CCCNC(=N)N)NC(=O)[C@H](CCC(N)=O)NC(=O)[C@@H](NC(=O)[C@H](C)NC(=O)[C@@H]1CSSC[C@H](NC(=O)[C@H](CCCNC(=N)N)NC(=O)[C@@H](N)CCCCNC(=O)COCCOCCNC(=O)CC[C@H](NC(=O)CCCCCCCCCCCCCCCCCCC(=O)O)C(=O)O)C(=O)N[C@@H](CC(N)=O)C(=O)N[C@@H]([C@@H](C)O)C(=O)N[C@@H](C)C(=O)N[C@@H]([C@@H](C)O)C(=O)N1)[C@@H](C)O)C(=O)N1CCC[C@H]1C(=O)N[C@@H](CO)C(=O)N[C@@H](CO)C(=O)N[C@H](C(=O)N[C@@H](CC(N)=O)C(=O)N[C@H](C(=O)NCC(=O)N[C@@H](CO)C(=O)N[C@@H](Cc1c[nH]cn1)C(=O)N[C@H](C(=O)N[C@@H](Cc1ccc(O)cc1)C(N)=O)[C@@H](C)O)C(C)C)[C@@H](C)O
notes: N-terminal extension by Lys at position -1; also called compound 45

Experiments:
[1] = biological target: T1, human amylin receptor (amylin 3(a) …); assay: cell-based or functional assay
[2] = biological target: T2, human calcitonin receptor; assay: cell-based or functional assay
[3] = biological target: T1, human amylin receptor (amylin 3(a) …); assay: SPA competition, displacement of 125I-rat amylin from membranes of BHK cells with human calcitonin receptor + RAMP-3 (Assay V)
Method: The binding assay was performed using scintillation proximity assay (SPA) beads (RPNQ0001) from PerkinElmer and cell membranes from the Amylin 3(a)/CRE-luc cells (as described in Assay (II)) were used. Membranes were prepared in the following way; the cells were rinsed with PBS and incubated with Versene for approximately 5 min before harvesting. The cells were flushed with PBS and the cell-suspension was centrifuged for 5 min at 1000 rpm. Cells were homogenized (ultrathurrax) in a buffer containing 20 mM Na-HEPES and 10 mM EDTA (pH 7.4) and centrifuged at 20.000 rpm for 15 min. The resulting pellet was resuspended, homogenized and centrifuged (20.000 rpm, 15 min) in a buffer containing 20 mM Na-HEPES and 0.1 mM EDTA (pH 7.4, buffer 2). The resulting pellet was resuspended in buffer 2 and protein concentration was measured (BCA protein Assay, Pierce). The homogenate was kept cold during the whole procedure. The membranes were kept at −80° C. until use. The assay was performed in a 384 well Optiplate (PerkinElmer) in a total volume of 40 ul. Membranes were mixed with SPA beads. Final concentration of membranes 35 ng/μL final and SPA beads was 0.05 mg/well. Test-compounds were dissolved in DMSO and further diluted in assay buffer (50 mM Hepes, pH 7.4, 1 mM CaCl2, 5 mM MgCl₂, 0.1% OA and 0.02% Tween20). […] The final mixture was incubated with shaking at 400 rpm for 120 min at 25° C. prior to centrifugation (1500 rpm, 10 min). Samples were analyzed on TopCounter™ (Packard). The IC₅₀ was calculated using (one site binding competition analysis) GraphPad Prism5 as a measure of receptor affinity.

[4] = biological target: T1, human amylin receptor (amylin 3(a) …); assay: cell-based or functional assay; remark: listed apart in the source
[5] = biological target: T2, human calcitonin receptor; assay: cell-based or functional assay; remark: listed apart in the source
[6] = biological target: T1, human amylin receptor (amylin 3(a) …); assay: SPA competition, displacement of 125I-rat amylin from membranes of BHK cells with human calcitonin receptor + RAMP-3 (Assay V); remark: listed apart in the source
Summary of the method: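 Membranes from BHK Amylin 3(a)/CRE-luc cells (35 ng/μL final) were mixed with SPA beads and test compounds in 50 mM Hepes pH 7.4 with 1 mM CaCl2, 5 mM MgCl₂, 0.1% OA and 0.02% Tween20. Incubation ran 120 min at 25° C with shaking; IC₅₀ came from one-site competition fitting.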

Binder | hAmylin-R funct. EC50 (pM) [1] | hCTR funct. EC50 (pM) [2] | IC50 [3] | hAmylin-R funct. EC50 (pM) [4] | hCTR funct. EC50 (pM) [5] | IC50 [6] | Ratio hCT/hAmylin funct. [1] | Ratio hCT/hAmylin funct. [4]
B1 | 425 pM | 5580 pM | 0.992 nM | 425 pM | 5580 pM | 0.992 nM | – | –
B2 | 594 pM | 10100 pM | 0.552 nM | 594 pM | 10100 pM | 0.552 nM | 17 | 17
